Assay results from article PMC2921341, “Interaction of Serum- and Glucocorticoid Regulated Kinase 1 (SGK1) with the WW-Domains of Nedd4-2 Is Required for Epithelial Sodium Channel Regulation” (PLoS ONE, 2010).

T1: SGK PY-motif peptide (human)
T1 construct: N-terminal cysteine of the printed peptide; stretch of human SGK (SGK1) with the PY motif PPFY (Y298); also called SGK peptide; source: synthetic peptide (Auspep)
T1 peptide: H-CLYGLPPFYSRNT-NH2

B1: Nedd4-2 WW2 (isolated WW-domain, GST removed) (domain or fragment)
chain: not shown
B2: Nedd4-2 WW2-3 (isolated protein, GST removed) (domain or fragment)
chain: TTPGLPSGWEERKDAKGRTYYVNHNNRTTTWTRPIMQLAEDGASGSATNSNNHLIEPQIRRPRSLSSPTVTLSAPLEGAKDSPVRRAVKDTLSNPQSPQPSPYNSPKPQHKVTQSFLPPGWEMRIAPNGRPFFIDHNTKTTTWEDPRLKFPVHM
B3: RNase (enzyme)
chain: KETAAAKFERQHMDSSTSAASSSNYCNQMMKSRNLTKDRCKPVNTFVHESLADVQAVCSQKNVACKNGQTNCYQSYSTMSITDCRETGSSKYPNCAYKTTQANKHIIVACEGNPYVPVHFDASV
B4: Nedd4-2 WW1 (isolated WW-domain, GST removed) (domain or fragment)
chain: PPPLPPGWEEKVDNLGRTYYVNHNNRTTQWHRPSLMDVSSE
B5: Nedd4 WW3 (isolated WW-domain, GST removed) (domain or fragment, UniProt P46934 840-873, looked up)
chain: GFLPKGWEVRHAPNGRPFFIDHNTKTTTWEDPRL
notes: Nedd4 WW-domain 3 (a Nedd4 with four WW-domains); also called WW-domain 3 of Nedd4; source: E. coli BL21, GST removed with thrombin or TEV protease, purified (glutathione-Sepharose, Superdex-75)

Molecular target: T1, SGK PY-motif peptide
Assay: SPR; BIAcore 2000; peptide immobilised on Sensor Chip CM5 by amine chemistry; isolated WW-domains injected at 20 µl/min in HBS-EP; KD estimated from steady state equilibrium responses
Conditions: both partners purified

Kd [µM] | Binder
105 | B1
53.3 | B2
> 600 | DLGPLPPGWEERIHLDGRTFYIDHNSKITQWEDPRLQNPAIT (domain or fragment) [Nedd4-2 WW4 (isolated WW-domain, GST removed)]
> 600 | B3
> 600 | B4
130 | B5
